# Reference: patent publication US20110118131A1 (published 2011)
# Target: IL-1β (UniProt P01584 117-269)
# Test: Biacore, Fab periplasmic extract on IL-1β
Binder,fold difference in affinity vs original [fold],binding result
"XPA23 light chain L96T (Fab, V domains shown, Single light chain substitution; Fab in periplasmic extract; also called C5A (XPA23) L96T) VH: EVQLLESGGGLVQPGGSLRLSCAASGFTFSKYFMFWVRQAPGKGLEWVSVISPSGGMTRYADSVKGRFTISRDNSKNTLYLQMNSLRAEDTAVYYCARVGYGGNSDYWGQGTLVTVSS VL: DIQMTQSPSSVSASVGDRLTIICRASQDINRWLAWYQQTPGNAPKLLIHSATSLQSGVPSRFSGSGSGTDFTLTINSLQPEDFATYYCQQADSFPTTFGGGTKVEIK",0.06,
"XPA23 light chain L96I (Fab, V domains shown, Single light chain substitution; Fab in periplasmic extract; also called C5A (XPA23) L96I) VH: EVQLLESGGGLVQPGGSLRLSCAASGFTFSKYFMFWVRQAPGKGLEWVSVISPSGGMTRYADSVKGRFTISRDNSKNTLYLQMNSLRAEDTAVYYCARVGYGGNSDYWGQGTLVTVSS VL: DIQMTQSPSSVSASVGDRLTIICRASQDINRWLAWYQQTPGNAPKLLIHSATSLQSGVPSRFSGSGSGTDFTLTINSLQPEDFATYYCQQADSFPITFGGGTKVEIK",0.67,
"XPA23 light chain P95L (Fab, V domains shown, Single light chain substitution; Fab in periplasmic extract; also called C5A (XPA23) P95L) VH: EVQLLESGGGLVQPGGSLRLSCAASGFTFSKYFMFWVRQAPGKGLEWVSVISPSGGMTRYADSVKGRFTISRDNSKNTLYLQMNSLRAEDTAVYYCARVGYGGNSDYWGQGTLVTVSS VL: DIQMTQSPSSVSASVGDRLTIICRASQDINRWLAWYQQTPGNAPKLLIHSATSLQSGVPSRFSGSGSGTDFTLTINSLQPEDFATYYCQQADSFLLTFGGGTKVEIK",,no binding
"XPA23 light chain S53L (Fab, V domains shown, Single light chain substitution; Fab in periplasmic extract; also called C5A (XPA23) S53L) VH: EVQLLESGGGLVQPGGSLRLSCAASGFTFSKYFMFWVRQAPGKGLEWVSVISPSGGMTRYADSVKGRFTISRDNSKNTLYLQMNSLRAEDTAVYYCARVGYGGNSDYWGQGTLVTVSS VL: DIQMTQSPSSVSASVGDRLTIICRASQDINRWLAWYQQTPGNAPKLLIHSATLLQSGVPSRFSGSGSGTDFTLTINSLQPEDFATYYCQQADSFPLTFGGGTKVEIK",0.99,
"XPA23 light chain S53A (Fab, V domains shown, Single light chain substitution; Fab in periplasmic extract; also called C5A (XPA23) S53A) VH: EVQLLESGGGLVQPGGSLRLSCAASGFTFSKYFMFWVRQAPGKGLEWVSVISPSGGMTRYADSVKGRFTISRDNSKNTLYLQMNSLRAEDTAVYYCARVGYGGNSDYWGQGTLVTVSS VL: DIQMTQSPSSVSASVGDRLTIICRASQDINRWLAWYQQTPGNAPKLLIHSATALQSGVPSRFSGSGSGTDFTLTINSLQPEDFATYYCQQADSFPLTFGGGTKVEIK",1.07,
"XPA23 light chain L96G (Fab, V domains shown, Single light chain substitution; Fab in periplasmic extract; also called C5A (XPA23) L96G) VH: EVQLLESGGGLVQPGGSLRLSCAASGFTFSKYFMFWVRQAPGKGLEWVSVISPSGGMTRYADSVKGRFTISRDNSKNTLYLQMNSLRAEDTAVYYCARVGYGGNSDYWGQGTLVTVSS VL: DIQMTQSPSSVSASVGDRLTIICRASQDINRWLAWYQQTPGNAPKLLIHSATSLQSGVPSRFSGSGSGTDFTLTINSLQPEDFATYYCQQADSFPGTFGGGTKVEIK",,no binding
"XPA23 light chain S53G (Fab, V domains shown, Single light chain substitution; Fab in periplasmic extract; also called C5A (XPA23) S53G) VH: EVQLLESGGGLVQPGGSLRLSCAASGFTFSKYFMFWVRQAPGKGLEWVSVISPSGGMTRYADSVKGRFTISRDNSKNTLYLQMNSLRAEDTAVYYCARVGYGGNSDYWGQGTLVTVSS VL: DIQMTQSPSSVSASVGDRLTIICRASQDINRWLAWYQQTPGNAPKLLIHSATGLQSGVPSRFSGSGSGTDFTLTINSLQPEDFATYYCQQADSFPLTFGGGTKVEIK",1.03,
"XPA23 light chain S53I (Fab, V domains shown, Single light chain substitution; Fab in periplasmic extract; also called C5A (XPA23) S53I) VH: EVQLLESGGGLVQPGGSLRLSCAASGFTFSKYFMFWVRQAPGKGLEWVSVISPSGGMTRYADSVKGRFTISRDNSKNTLYLQMNSLRAEDTAVYYCARVGYGGNSDYWGQGTLVTVSS VL: DIQMTQSPSSVSASVGDRLTIICRASQDINRWLAWYQQTPGNAPKLLIHSATILQSGVPSRFSGSGSGTDFTLTINSLQPEDFATYYCQQADSFPLTFGGGTKVEIK",1.42,
"XPA23 light chain S93A (Fab, V domains shown, Single light chain substitution; Fab in periplasmic extract; also called C5A (XPA23) S93A) VH: EVQLLESGGGLVQPGGSLRLSCAASGFTFSKYFMFWVRQAPGKGLEWVSVISPSGGMTRYADSVKGRFTISRDNSKNTLYLQMNSLRAEDTAVYYCARVGYGGNSDYWGQGTLVTVSS VL: DIQMTQSPSSVSASVGDRLTIICRASQDINRWLAWYQQTPGNAPKLLIHSATSLQSGVPSRFSGSGSGTDFTLTINSLQPEDFATYYCQQADAFPLTFGGGTKVEIK",1.16,
"XPA23 light chain P95G (Fab, V domains shown, Single light chain substitution; Fab in periplasmic extract; also called C5A (XPA23) P95G) VH: EVQLLESGGGLVQPGGSLRLSCAASGFTFSKYFMFWVRQAPGKGLEWVSVISPSGGMTRYADSVKGRFTISRDNSKNTLYLQMNSLRAEDTAVYYCARVGYGGNSDYWGQGTLVTVSS VL: DIQMTQSPSSVSASVGDRLTIICRASQDINRWLAWYQQTPGNAPKLLIHSATSLQSGVPSRFSGSGSGTDFTLTINSLQPEDFATYYCQQADSFGLTFGGGTKVEIK",,no binding
"XPA23 light chain P95A (Fab, V domains shown, Single light chain substitution; Fab in periplasmic extract; also called C5A (XPA23) P95A) VH: EVQLLESGGGLVQPGGSLRLSCAASGFTFSKYFMFWVRQAPGKGLEWVSVISPSGGMTRYADSVKGRFTISRDNSKNTLYLQMNSLRAEDTAVYYCARVGYGGNSDYWGQGTLVTVSS VL: DIQMTQSPSSVSASVGDRLTIICRASQDINRWLAWYQQTPGNAPKLLIHSATSLQSGVPSRFSGSGSGTDFTLTINSLQPEDFATYYCQQADSFALTFGGGTKVEIK",3.83,
"XPA23 light chain S53V (Fab, V domains shown, Single light chain substitution; Fab in periplasmic extract; also called C5A (XPA23) S53V) VH: EVQLLESGGGLVQPGGSLRLSCAASGFTFSKYFMFWVRQAPGKGLEWVSVISPSGGMTRYADSVKGRFTISRDNSKNTLYLQMNSLRAEDTAVYYCARVGYGGNSDYWGQGTLVTVSS VL: DIQMTQSPSSVSASVGDRLTIICRASQDINRWLAWYQQTPGNAPKLLIHSATVLQSGVPSRFSGSGSGTDFTLTINSLQPEDFATYYCQQADSFPLTFGGGTKVEIK",1.42,
"XPA23 light chain F94P (Fab, V domains shown, Single light chain substitution; Fab in periplasmic extract; also called C5A (XPA23) F94P) VH: EVQLLESGGGLVQPGGSLRLSCAASGFTFSKYFMFWVRQAPGKGLEWVSVISPSGGMTRYADSVKGRFTISRDNSKNTLYLQMNSLRAEDTAVYYCARVGYGGNSDYWGQGTLVTVSS VL: DIQMTQSPSSVSASVGDRLTIICRASQDINRWLAWYQQTPGNAPKLLIHSATSLQSGVPSRFSGSGSGTDFTLTINSLQPEDFATYYCQQADSPPLTFGGGTKVEIK",0.17,
"XPA23 light chain S53P (Fab, V domains shown, Single light chain substitution; Fab in periplasmic extract; also called C5A (XPA23) S53P) VH: EVQLLESGGGLVQPGGSLRLSCAASGFTFSKYFMFWVRQAPGKGLEWVSVISPSGGMTRYADSVKGRFTISRDNSKNTLYLQMNSLRAEDTAVYYCARVGYGGNSDYWGQGTLVTVSS VL: DIQMTQSPSSVSASVGDRLTIICRASQDINRWLAWYQQTPGNAPKLLIHSATPLQSGVPSRFSGSGSGTDFTLTINSLQPEDFATYYCQQADSFPLTFGGGTKVEIK",4.92,
"XPA23 light chain F94V (Fab, V domains shown, Single light chain substitution; Fab in periplasmic extract; also called C5A (XPA23) F94V) VH: EVQLLESGGGLVQPGGSLRLSCAASGFTFSKYFMFWVRQAPGKGLEWVSVISPSGGMTRYADSVKGRFTISRDNSKNTLYLQMNSLRAEDTAVYYCARVGYGGNSDYWGQGTLVTVSS VL: DIQMTQSPSSVSASVGDRLTIICRASQDINRWLAWYQQTPGNAPKLLIHSATSLQSGVPSRFSGSGSGTDFTLTINSLQPEDFATYYCQQADSVPLTFGGGTKVEIK",0.2,

# Next, values leading:
fold difference in affinity vs original [fold],binding result,Binder
0.55,,"XPA23 light chain F94L (Fab, V domains shown, Single light chain substitution; Fab in periplasmic extract; also called C5A (XPA23) F94L) VH: EVQLLESGGGLVQPGGSLRLSCAASGFTFSKYFMFWVRQAPGKGLEWVSVISPSGGMTRYADSVKGRFTISRDNSKNTLYLQMNSLRAEDTAVYYCARVGYGGNSDYWGQGTLVTVSS VL: DIQMTQSPSSVSASVGDRLTIICRASQDINRWLAWYQQTPGNAPKLLIHSATSLQSGVPSRFSGSGSGTDFTLTINSLQPEDFATYYCQQADSLPLTFGGGTKVEIK"
,no binding,"XPA23 light chain P95T (Fab, V domains shown, Single light chain substitution; Fab in periplasmic extract; also called C5A (XPA23) P95T) VH: EVQLLESGGGLVQPGGSLRLSCAASGFTFSKYFMFWVRQAPGKGLEWVSVISPSGGMTRYADSVKGRFTISRDNSKNTLYLQMNSLRAEDTAVYYCARVGYGGNSDYWGQGTLVTVSS VL: DIQMTQSPSSVSASVGDRLTIICRASQDINRWLAWYQQTPGNAPKLLIHSATSLQSGVPSRFSGSGSGTDFTLTINSLQPEDFATYYCQQADSFTLTFGGGTKVEIK"
,no binding,"XPA23 light chain L96P (Fab, V domains shown, Single light chain substitution; Fab in periplasmic extract; also called C5A (XPA23) L96P) VH: EVQLLESGGGLVQPGGSLRLSCAASGFTFSKYFMFWVRQAPGKGLEWVSVISPSGGMTRYADSVKGRFTISRDNSKNTLYLQMNSLRAEDTAVYYCARVGYGGNSDYWGQGTLVTVSS VL: DIQMTQSPSSVSASVGDRLTIICRASQDINRWLAWYQQTPGNAPKLLIHSATSLQSGVPSRFSGSGSGTDFTLTINSLQPEDFATYYCQQADSFPPTFGGGTKVEIK"
0.26,,"XPA23 light chain L96A (Fab, V domains shown, Single light chain substitution; Fab in periplasmic extract; also called C5A (XPA23) L96A) VH: EVQLLESGGGLVQPGGSLRLSCAASGFTFSKYFMFWVRQAPGKGLEWVSVISPSGGMTRYADSVKGRFTISRDNSKNTLYLQMNSLRAEDTAVYYCARVGYGGNSDYWGQGTLVTVSS VL: DIQMTQSPSSVSASVGDRLTIICRASQDINRWLAWYQQTPGNAPKLLIHSATSLQSGVPSRFSGSGSGTDFTLTINSLQPEDFATYYCQQADSFPATFGGGTKVEIK"
,no binding,"XPA23 light chain F94T (Fab, V domains shown, Single light chain substitution; Fab in periplasmic extract; also called C5A (XPA23) F94T) VH: EVQLLESGGGLVQPGGSLRLSCAASGFTFSKYFMFWVRQAPGKGLEWVSVISPSGGMTRYADSVKGRFTISRDNSKNTLYLQMNSLRAEDTAVYYCARVGYGGNSDYWGQGTLVTVSS VL: DIQMTQSPSSVSASVGDRLTIICRASQDINRWLAWYQQTPGNAPKLLIHSATSLQSGVPSRFSGSGSGTDFTLTINSLQPEDFATYYCQQADSTPLTFGGGTKVEIK"
,no binding,"XPA23 light chain P95V (Fab, V domains shown, Single light chain substitution; Fab in periplasmic extract; also called C5A (XPA23) P95V) VH: EVQLLESGGGLVQPGGSLRLSCAASGFTFSKYFMFWVRQAPGKGLEWVSVISPSGGMTRYADSVKGRFTISRDNSKNTLYLQMNSLRAEDTAVYYCARVGYGGNSDYWGQGTLVTVSS VL: DIQMTQSPSSVSASVGDRLTIICRASQDINRWLAWYQQTPGNAPKLLIHSATSLQSGVPSRFSGSGSGTDFTLTINSLQPEDFATYYCQQADSFVLTFGGGTKVEIK"
,no binding,"XPA23 light chain P95I (Fab, V domains shown, Single light chain substitution; Fab in periplasmic extract; also called C5A (XPA23) P95I) VH: EVQLLESGGGLVQPGGSLRLSCAASGFTFSKYFMFWVRQAPGKGLEWVSVISPSGGMTRYADSVKGRFTISRDNSKNTLYLQMNSLRAEDTAVYYCARVGYGGNSDYWGQGTLVTVSS VL: DIQMTQSPSSVSASVGDRLTIICRASQDINRWLAWYQQTPGNAPKLLIHSATSLQSGVPSRFSGSGSGTDFTLTINSLQPEDFATYYCQQADSFILTFGGGTKVEIK"
